Laboratory results reported in patent US20220289795, “EFFICIENT METHOD FOR PREPARING PPR PROTEIN AND USE OF THE SAME” (EditForce, Inc., published 2022).
Residue numbers refer to the chain shown, from its start.

Experiments:
[1] = tested on: v2_PPR1 (Artificial Sequence); assay: ELONA
[2] = tested on: v2_PPR2 (Artificial Sequence); assay: ELONA
[3] = tested on: v2_PPR3 (Artificial Sequence); assay: ELONA
[4] = tested on: v2_PPR5 (Artificial Sequence); assay: ELONA
[5] = biological target: T1, v3.1_PPR6 (Artificial Sequence); assay: ELONA; RPB-ELISA; details: tags: luciferase fusion; label: 5'-biotin
T1 chain: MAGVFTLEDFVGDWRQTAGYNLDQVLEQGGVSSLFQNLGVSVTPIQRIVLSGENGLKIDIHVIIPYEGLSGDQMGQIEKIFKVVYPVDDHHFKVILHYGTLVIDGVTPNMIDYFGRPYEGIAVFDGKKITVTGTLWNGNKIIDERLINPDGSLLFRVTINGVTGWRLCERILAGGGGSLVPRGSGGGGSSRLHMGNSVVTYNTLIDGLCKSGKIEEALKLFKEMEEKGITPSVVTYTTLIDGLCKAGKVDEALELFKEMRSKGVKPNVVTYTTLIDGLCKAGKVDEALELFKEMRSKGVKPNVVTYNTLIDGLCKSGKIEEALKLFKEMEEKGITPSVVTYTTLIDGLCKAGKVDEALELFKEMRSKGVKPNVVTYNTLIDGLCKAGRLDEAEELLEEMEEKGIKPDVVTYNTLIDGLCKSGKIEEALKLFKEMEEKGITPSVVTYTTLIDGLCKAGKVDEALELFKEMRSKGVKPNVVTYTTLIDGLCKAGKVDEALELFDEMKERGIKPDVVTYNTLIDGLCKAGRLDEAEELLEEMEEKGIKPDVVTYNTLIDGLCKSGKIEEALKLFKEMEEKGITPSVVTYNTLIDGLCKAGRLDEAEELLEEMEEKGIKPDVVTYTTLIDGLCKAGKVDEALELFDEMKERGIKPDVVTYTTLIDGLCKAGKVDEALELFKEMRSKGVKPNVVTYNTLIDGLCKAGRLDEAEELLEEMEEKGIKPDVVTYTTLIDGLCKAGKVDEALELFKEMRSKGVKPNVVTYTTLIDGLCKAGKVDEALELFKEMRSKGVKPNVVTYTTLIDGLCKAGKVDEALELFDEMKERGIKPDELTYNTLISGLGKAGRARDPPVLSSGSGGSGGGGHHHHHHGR

[6] = biological target: T2, v3.1_PPR9 (Artificial Sequence); assay: ELONA; RPB-ELISA; details: tags: luciferase fusion; label: 5'-biotin
T2 chain: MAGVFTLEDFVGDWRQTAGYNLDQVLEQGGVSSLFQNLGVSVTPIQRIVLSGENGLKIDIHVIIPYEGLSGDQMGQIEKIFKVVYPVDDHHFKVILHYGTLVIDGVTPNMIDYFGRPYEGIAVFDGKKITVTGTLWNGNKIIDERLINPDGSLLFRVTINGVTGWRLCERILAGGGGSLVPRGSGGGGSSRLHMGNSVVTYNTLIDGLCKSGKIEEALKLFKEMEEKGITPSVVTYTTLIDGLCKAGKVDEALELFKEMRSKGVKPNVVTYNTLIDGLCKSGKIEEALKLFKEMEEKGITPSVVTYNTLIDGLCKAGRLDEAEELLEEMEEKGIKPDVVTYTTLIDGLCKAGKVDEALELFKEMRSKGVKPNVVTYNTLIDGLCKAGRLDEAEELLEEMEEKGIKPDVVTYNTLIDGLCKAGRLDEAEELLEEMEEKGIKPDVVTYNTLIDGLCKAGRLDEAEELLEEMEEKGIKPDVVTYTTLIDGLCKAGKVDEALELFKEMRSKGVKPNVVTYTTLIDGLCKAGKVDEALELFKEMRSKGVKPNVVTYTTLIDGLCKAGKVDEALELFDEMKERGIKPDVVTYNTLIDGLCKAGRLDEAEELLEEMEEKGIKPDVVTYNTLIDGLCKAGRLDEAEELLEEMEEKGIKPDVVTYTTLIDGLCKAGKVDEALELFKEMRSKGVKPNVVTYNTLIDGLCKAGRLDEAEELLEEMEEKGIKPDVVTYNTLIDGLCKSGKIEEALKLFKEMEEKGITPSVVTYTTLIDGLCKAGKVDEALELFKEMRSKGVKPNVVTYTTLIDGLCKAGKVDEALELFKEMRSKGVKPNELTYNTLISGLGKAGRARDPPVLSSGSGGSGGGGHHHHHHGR

[7] = biological target: T3, NL_v2_PPR9 (Artificial Sequence); assay: ELONA; RPB-ELISA; details: tags: N-term luciferase, C-term 6xHis; label: 5'-biotin
T3 chain: T2 chain with K248D, K353D, K493D, K528D, K668D, K773D, K808D

[8] = biological target: T4, NL_v2_PPR7 (Artificial Sequence); assay: ELONA; RPB-ELISA; details: tags: N-term luciferase, C-term 6xHis; label: 5'-biotin
T4 chain: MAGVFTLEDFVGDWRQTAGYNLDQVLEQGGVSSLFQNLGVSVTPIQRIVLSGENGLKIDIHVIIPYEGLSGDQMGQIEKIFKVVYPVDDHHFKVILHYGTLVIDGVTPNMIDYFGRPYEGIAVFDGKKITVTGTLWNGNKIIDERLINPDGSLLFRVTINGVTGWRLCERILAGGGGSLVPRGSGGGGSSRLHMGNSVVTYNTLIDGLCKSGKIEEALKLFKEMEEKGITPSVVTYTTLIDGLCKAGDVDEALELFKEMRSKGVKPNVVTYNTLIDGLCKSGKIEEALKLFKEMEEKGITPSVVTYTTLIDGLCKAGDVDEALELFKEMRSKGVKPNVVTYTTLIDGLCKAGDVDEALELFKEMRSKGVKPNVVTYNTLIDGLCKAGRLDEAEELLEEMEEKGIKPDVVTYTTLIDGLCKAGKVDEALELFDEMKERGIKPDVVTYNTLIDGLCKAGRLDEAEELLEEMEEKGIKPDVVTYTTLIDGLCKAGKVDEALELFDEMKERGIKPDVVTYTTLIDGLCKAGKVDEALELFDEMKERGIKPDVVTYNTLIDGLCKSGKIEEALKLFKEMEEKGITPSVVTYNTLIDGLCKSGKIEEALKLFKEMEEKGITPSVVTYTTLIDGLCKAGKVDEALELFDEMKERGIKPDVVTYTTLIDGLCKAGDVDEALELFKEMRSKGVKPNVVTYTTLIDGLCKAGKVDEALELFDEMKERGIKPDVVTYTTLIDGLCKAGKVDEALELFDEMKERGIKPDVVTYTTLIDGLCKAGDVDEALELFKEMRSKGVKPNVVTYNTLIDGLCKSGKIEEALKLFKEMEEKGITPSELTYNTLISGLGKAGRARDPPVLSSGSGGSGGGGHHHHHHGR

[9] = biological target: T5, v3.1_PPR7 (Artificial Sequence); assay: ELONA; RPB-ELISA; details: tags: luciferase fusion; label: 5'-biotin
T5 chain: T4 chain with D248K, D318K, D353K, D668K, D773K

Q: GACAUGCCAACAUCAGUCUGAUAAGGACUG [RNA_6] was tested. Which binding signal (log2 luminescence) ([1]; off-target, on-target 25.98) did it give?
A: 14.4

Q: For GAGAGGAAGCCUGAGAGU [T_2 (in RNA_2)], which binding signal ([2]; RPB-ELISA) is on record?
A: 5.7e+07 luminescence

Q: Which results are given for GAAUGAACUCUUCCGGGA [T_1 (in RNA_1)]?
A: binding signal (log2 luminescence) ([2]; off-target): 17; binding signal (log2 luminescence) ([3]; off-target, on-target 25.00): 16.7; binding signal (log2 luminescence) ([4]; off-target, on-target 25.83): 18.1; binding signal ([1]; RPB-ELISA): 6.6e+07 luminescence

Q: With CUGAGUCAUAACCAGCCU [T_3 (in RNA_3)] as the molecule, how does the binding signal ([3]; RPB-ELISA) read?
A: 3.3e+07 luminescence

Q: For GACAUGCCACAAUGUGGCCGAGGACGACUG [RNA_7], which binding signal (log2 luminescence) ([2]; off-target cross-binding) is on record?
A: 24.8

Q: Which binding signal ([4]; RPB-ELISA) does the source give for GGCAAAAAGAUCACUGUA [T_5 (in RNA_5)] here?
A: 6e+07 luminescence

B1: RNA_6 (ssRNA)
RNA: GACAUGCCAACAUCAGUCUGAUAAGGACUG
Q: How did the binding signal [5] turn out when B1 was run?
A: 6.1e+06 luminescence

B2: RNA_9 (ssRNA)
RNA: GACAUGCCACUAUUUAAGUUAUCAAGACUG
Q: What does the source list for B2?
A: binding signal [6]: 2.2e+06 luminescence; binding signal [7]: 4.7e+07 luminescence

B3: RNA_7 (ssRNA)
RNA: GACAUGCCACAAUGUGGCCGAGGACGACUG
Q: Which binding signal [8] does the source give for B3 here?
A: 1.9e+07 luminescence

Q: And the binding signal [9]?
A: 3.4e+07 luminescence
